These results are taken from publication PMC5928908 (Theranostics, 2018).

In this assay the target is full-length GST-PRMT5 (UniProt O14744 1-637). Description: pull-down.
full-length GST-PRMT5, sequence (O14744 whole entry): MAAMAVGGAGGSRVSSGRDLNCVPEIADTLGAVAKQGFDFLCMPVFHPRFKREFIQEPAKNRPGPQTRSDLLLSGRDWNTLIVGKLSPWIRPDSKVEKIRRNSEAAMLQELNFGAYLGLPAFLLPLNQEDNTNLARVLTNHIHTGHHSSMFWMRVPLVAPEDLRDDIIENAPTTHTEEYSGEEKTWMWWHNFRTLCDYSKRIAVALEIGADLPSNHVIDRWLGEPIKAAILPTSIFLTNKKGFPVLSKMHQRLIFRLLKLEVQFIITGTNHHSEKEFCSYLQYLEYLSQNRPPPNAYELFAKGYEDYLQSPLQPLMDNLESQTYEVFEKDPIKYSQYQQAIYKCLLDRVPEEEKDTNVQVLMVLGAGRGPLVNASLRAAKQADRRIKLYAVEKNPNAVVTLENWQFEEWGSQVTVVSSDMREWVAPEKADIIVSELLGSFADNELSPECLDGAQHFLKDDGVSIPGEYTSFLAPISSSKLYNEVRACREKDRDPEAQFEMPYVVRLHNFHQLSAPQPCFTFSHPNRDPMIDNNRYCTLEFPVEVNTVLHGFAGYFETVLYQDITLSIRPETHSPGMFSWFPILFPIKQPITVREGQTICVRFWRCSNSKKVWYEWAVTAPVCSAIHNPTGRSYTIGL

B1: full-length His-CAPG (natural protein)
chain: MYTAIPQSGSPFPGSVQDPGLHVWRVEKLKPVPVAQENQGVFFSGDSYLVLHNGPEEVSHLHLWIGQQSSRDEQGACAVLAVHLNTLLGERPVQHREVQGNESDLFMSYFPRGLKYQEGGVESAFHKTSTGAPAAIKKLYQVKGKKNIRATERALNWDSFNTGDCFILDLGQNIFAWCGGKSNILERNKARDLALAIRDSERQGKAQVEIVTDGEEPAEMIQVLGPKPALKEGNPEEDLTADKANAQAAALYKVSDATGQMNLTKVADSSPFALELLISDDCFVLDNGLCGKIYIWKGRKANEKERQAALQVAEGFISRMQYAPNTQVEILPQGHESPIFKQFFKDWK
On to B1, for which the binding result is recorded as “binds”.
